B1: BBSome complex member BBS2 (Homo sapiens), Q9BXC9 (parent)
chain: MLLPVFTLKLRHKISPRMVAIGRYDGTHPCLAAATQTGKVFIHNPHTRNQHVSASRVFQSPLESDVSLLSINQAVSCLTAGVLNPELGYDALLVGTQTNLLAYDVYNNSDLFYREVADGANAIVLGTLGDISSPLAIIGGNCALQGFNHEGSDLFWTVTGDNVNSLALCDFDGDGKKELLVGSEDFDIRVFKEDEIVAEMTETEIVTSLCPMYGSRFGYALSNGTVGVYDKTSRYWRIKSKNHAMSIHAFDLNSDGVNELITGWSNGKVDARSDRTGEVIFKDNFSSAIAGVVEGDYRMDGHIQLICCSVDGEIRGYLPGTAEMRGNLMDTSAEQDLIRELSQKKQNLLLELRNYEENAKAELASPLNEADGHRGIIPANTRLHTTLSVSLGNETQTAHTELRISTSNDTIIRAVLIFAEGIFTGESHVVHPSIHNLSSSICIPIVPPKDVPVDLHLKAFVGYRSSTQFHVFESTRQLPRFSMYALTSLDPASEPISYVNFTIAERAQRVVVWLGQNFLLPEDTHIQNAPFQVCFTSLRNGGHLHIKIKLSGEITINTDDIDLAGDIIQSMASFFAIEDLQVEADFPVYFEELRKVLVKVDEYHSVHQKLSADMADHSNLIRSLLVGAEDARLMRDMKTMKSRYMELYDLNRDLLNGYKIRCNNHTELLGNLKAVNQAIQRAGRLRVGKPKNQVITACRDAIRSNNINTLFKIMRVGTASS
partner: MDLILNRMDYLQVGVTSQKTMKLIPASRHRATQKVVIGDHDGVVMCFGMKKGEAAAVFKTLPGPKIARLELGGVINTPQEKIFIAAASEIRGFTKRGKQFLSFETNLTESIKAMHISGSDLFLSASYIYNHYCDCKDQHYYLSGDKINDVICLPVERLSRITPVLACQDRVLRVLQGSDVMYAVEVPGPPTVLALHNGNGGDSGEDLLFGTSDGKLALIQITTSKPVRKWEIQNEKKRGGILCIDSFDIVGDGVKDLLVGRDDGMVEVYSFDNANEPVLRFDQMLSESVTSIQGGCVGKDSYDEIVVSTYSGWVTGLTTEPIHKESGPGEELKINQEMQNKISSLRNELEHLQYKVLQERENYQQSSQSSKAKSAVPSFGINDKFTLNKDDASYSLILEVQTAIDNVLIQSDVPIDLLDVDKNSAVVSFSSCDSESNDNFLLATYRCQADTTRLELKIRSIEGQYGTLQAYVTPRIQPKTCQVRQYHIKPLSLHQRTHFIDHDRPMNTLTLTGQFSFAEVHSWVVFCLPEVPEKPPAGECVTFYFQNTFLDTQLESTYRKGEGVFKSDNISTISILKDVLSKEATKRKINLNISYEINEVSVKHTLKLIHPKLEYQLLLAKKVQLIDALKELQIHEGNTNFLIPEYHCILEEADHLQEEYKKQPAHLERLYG

Variants of: B1
Conditions: with BBS7, Q8IWZ6-2

Variant | effect of a mutation on the interaction
F501A | with no effect
F501E | disrupting interaction strength
F501K | disrupting interaction strength
Y484Q | disrupting interaction strength
Y484E | with no effect
S497A | with no effect
S497K | with no effect
A492E | with no effect
N500A | with no effect
L486E | with no effect
L486K | with no effect
L486A | with no effect
S493E | with no effect
S493K | with no effect
S493A | with no effect
S493N | disrupting interaction strength
T487A | with no effect
T487P | disrupting interaction strength
T487E | with no effect

Variant | effect of a mutation on the interaction
T487R | disrupting interaction strength
I496E | with no effect
I496A | with no effect
A485K | with no effect
A485E | with no effect
A485S | disrupting interaction strength
S482E | disrupting interaction strength
S482A | with no effect
P495E | with no effect
P495K | with no effect
P495A | with no effect
P491A | with no effect
P491K | with no effect
T502A | with no effect
T502K | with no effect
R480K | with no effect
R480E | with no effect
D490K | with no effect
D490A | with no effect

Variant | effect of a mutation on the interaction
D490E | with no effect
I503A | with no effect
I503E | with no effect
F481E | disrupting interaction strength
F481K | disrupting interaction strength
F481A | with no effect
M483A | with no effect
V499K | disrupting interaction strength
V499R | disrupting interaction strength
Y498E | with no effect
Y498A | with no effect
Y498K | with no effect
A504S | disrupting interaction strength
A504E | with no effect
A504K | with no effect
S488R | disrupting interaction strength
S488E | with no effect
S488K | with no effect
S488A | with no effect

The next lines start with the values.

effect of a mutation on the interaction | Variant
disrupting interaction strength | F501S
disrupting interaction strength | Y484A
with no effect | Y484K
disrupting interaction strength | Y484S
with no effect | S497E
with no effect | A492K
with no effect | E505K
with no effect | E505A
with no effect | N500E
with no effect | N500K
with no effect | T487K
with no effect | I496K
with no effect | S482K
with no effect | P491E
with no effect | T502E
disrupting interaction strength | I503K
with no effect | E494A
with no effect | E494K
with no effect | M483E
disrupting interaction strength | M483K
with no effect | V499A
disrupting interaction strength | V499E
with no effect | L489E
with no effect | L489K
with no effect | L489A
disrupting interaction strength | R506A
